Experimental data from US20250376519A1 (JIANGSU HENGRUI PHARMACEUTICALS, published 2025).

T1: human DLL3 on cells (human, UniProt Q9NYJ7 27-618)
T1 construct: Endogenous on H1184 and SHP77; Cell line is named under assay; also called H1184; DLL3/H82
T1 sequence: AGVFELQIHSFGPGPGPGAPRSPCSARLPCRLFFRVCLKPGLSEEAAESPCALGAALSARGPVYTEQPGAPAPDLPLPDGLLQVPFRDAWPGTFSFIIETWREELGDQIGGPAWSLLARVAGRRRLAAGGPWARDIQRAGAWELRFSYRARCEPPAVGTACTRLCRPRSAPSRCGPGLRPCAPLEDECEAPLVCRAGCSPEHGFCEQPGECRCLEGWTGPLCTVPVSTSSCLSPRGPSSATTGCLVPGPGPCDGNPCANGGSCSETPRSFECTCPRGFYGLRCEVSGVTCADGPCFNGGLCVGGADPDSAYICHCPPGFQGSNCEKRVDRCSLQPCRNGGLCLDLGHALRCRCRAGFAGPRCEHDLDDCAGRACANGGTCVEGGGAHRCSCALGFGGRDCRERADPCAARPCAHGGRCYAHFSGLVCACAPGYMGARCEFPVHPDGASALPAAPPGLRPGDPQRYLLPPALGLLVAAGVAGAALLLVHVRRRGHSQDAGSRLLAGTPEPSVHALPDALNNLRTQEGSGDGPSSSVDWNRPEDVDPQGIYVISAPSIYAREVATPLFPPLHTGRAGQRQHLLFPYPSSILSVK

T2: human DLL3 (ACRO, DLL3-H52H4) (human, UniProt Q9NYJ7 27-492)
T2 construct: Bought
T2 sequence: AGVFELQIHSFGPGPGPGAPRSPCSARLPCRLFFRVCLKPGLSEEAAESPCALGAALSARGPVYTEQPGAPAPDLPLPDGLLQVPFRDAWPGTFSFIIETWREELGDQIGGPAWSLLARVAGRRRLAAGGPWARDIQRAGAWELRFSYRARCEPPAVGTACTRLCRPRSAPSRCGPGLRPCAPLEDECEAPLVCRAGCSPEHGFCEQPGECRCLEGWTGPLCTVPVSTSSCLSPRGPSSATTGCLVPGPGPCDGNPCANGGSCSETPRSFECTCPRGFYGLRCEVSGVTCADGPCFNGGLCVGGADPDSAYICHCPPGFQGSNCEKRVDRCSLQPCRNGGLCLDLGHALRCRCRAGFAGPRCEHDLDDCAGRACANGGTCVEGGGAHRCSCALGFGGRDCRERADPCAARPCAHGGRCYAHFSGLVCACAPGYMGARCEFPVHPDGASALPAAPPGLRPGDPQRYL


Columns and labels:
human DLL3 on cells [1] = biological target: T1, human DLL3 on cells; assay: flow cytometry, H1184 cells
Method: (§1) The plates were centrifuged at 300 g for 5 min, and the supernatant was removed. Different concentrations of test antibodies were added at 100 μL/well. The plates were incubated in the dark in a refrigerator at 4° C. for 1 h. After 3 centrifugal washes at 300 g, working concentrations of APC anti-human IgG Fc (BioLegend, 410712) or PE F(ab′)2-goat anti-human IgG (invitrogen, H10104) were added. The plates were incubated in the dark in a refrigerator at 4° C. for 40 min. After 3 centrifugal washes at 300 g, the geometric mean fluorescence intensity was measured on an Invitrogen flow cytometer, and the EC50 values for the binding of the antibodies to DLL3-expressing cells were calculated.

[2] = biological target: T2, human DLL3 (ACRO, DLL3-H52H4); assay: SPR Biacore 8K, Ab captured on Protein A
Summary of the method: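 Antibodies captured on a Protein A chip for 18 s; DLL3 or CD3D&3E antigen flowed 180 s, then 600 s dissociation, with real-time detection. Regeneration used 10 mM glycine-HCl pH 1.5 between cycles. Kinetics were obtained by 1:1 model fitting.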

human DLL3 on cells [3] = biological target: T1, human DLL3 on cells; assay: flow cytometry, DLL3/H82 cells
Method: as §1

Emax (human DLL3 on cells [1]) | Kd [2] [nM] | koff [2] [s⁻¹] | kon [2] [M⁻¹ s⁻¹] | EC50 (human DLL3 on cells [1]) [nM] | EC50 (human DLL3 on cells [3]) [nM] | Emax (human DLL3 on cells [3]) | Binder
2310 | 0.55 | 0.000668 | 1.22e+06 | – | – | – | hu98L2H2 (antibody, human IgG1, kappa, V domains shown) VH: EVQLVESGGGLVQPGGSLRLSCAASGFTFSDYGIHWVRQAPGKGLEWVAYISSGGYTIYYADTVKGRFTISRDNAKNSLYLQMNSLRAEDTAVYYCARGDYEDIFYTMDYWGQGTTVTVSS VL: DIQMTQSPSSLSASVGDRVTITCRASRDITKFLNWYQQKPGKAVKLLIYYTSRLHSGVPSRFSGSGSGTDYTLTISSLQPEDFATYYCQQGNTLPWTFGGGTKVEIKR
2350 | 0.464 | 0.000732 | 1.58e+06 | – | – | – | hu98L3H2 (antibody, human IgG1, kappa, V domains shown) VH: EVQLVESGGGLVQPGGSLRLSCAASGFTFSDYGIHWVRQAPGKGLEWVAYISSGGYTIYYADTVKGRFTISRDNAKNSLYLQMNSLRAEDTAVYYCARGDYEDIFYTMDYWGQGTTVTVSS VL: DIQMTQSPSSLSASVGDRVTITCRASRDITKFLNWYQQKPGGAVKLLIYYTSRLHSGVPSRFSGSGSGTDYTLTISSLQPEDFATYYCQQGNTLPWTFGGGTKVEIKR
1540 | 1.22 | 0.00173 | 1.42e+06 | – | – | – | hu98L3H5 (antibody, human IgG1, kappa, V domains shown) VH: EVQLVESGGGLVQPGGSLRLSCAASGFTFSDYGMHWVRQAPGKGLEWVAYISSGGYTSYYADTVKGRFTISRDNAKNSLYLQMNSLRAEDTAVYYCARGDYEDIFYTMDYWGQGTTVTVSS VL: DIQMTQSPSSLSASVGDRVTITCRASRDITKFLNWYQQKPGGAVKLLIYYTSRLHSGVPSRFSGSGSGTDYTLTISSLQPEDFATYYCQQGNTLPWTFGGGTKVEIKR
2470 | 0.269 | 0.000389 | 1.45e+06 | – | – | – | hu98L2H1 (antibody, human IgG1, kappa, V domains shown) VH: EVQLVESGGGLVQPGGSLRLSCAASGFTFSDYGIHWVRQAPGKGLEWVAYISSGGYTIYYADTVKGRFTISRDNAKNSLYLQMNSLRAEDTAVYYCARGDYDDIFYTMDYWGQGTTVTVSS VL: DIQMTQSPSSLSASVGDRVTITCRASRDITKFLNWYQQKPGKAVKLLIYYTSRLHSGVPSRFSGSGSGTDYTLTISSLQPEDFATYYCQQGNTLPWTFGGGTKVEIKR
1600 | 1.11 | 0.00151 | 1.36e+06 | – | – | – | hu98L3H4 (antibody, human IgG1, kappa, V domains shown) VH: EVQLVESGGGLVQPGGSLRLSCAASGFTFSDYGIHWVRQAPGKGLEWVAYISSGGYTSYYADTVKGRFTISRDNAKNSLYLQMNSLRAEDTAVYYCARGDYEDIFYTMDYWGQGTTVTVSS VL: DIQMTQSPSSLSASVGDRVTITCRASRDITKFLNWYQQKPGGAVKLLIYYTSRLHSGVPSRFSGSGSGTDYTLTISSLQPEDFATYYCQQGNTLPWTFGGGTKVEIKR
2820 | 1.1 | 0.00171 | 1.55e+06 | – | – | – | hu98L1H1 (antibody, human IgG1, kappa, V domains shown) VH: EVQLVESGGGLVQPGGSLRLSCAASGFTFSDYGIHWVRQAPGKGLEWVAYISSGGYTIYYADTVKGRFTISRDNAKNSLYLQMNSLRAEDTAVYYCARGDYDDIFYTMDYWGQGTTVTVSS VL: DIQMTQSPSSLSASVGDRVTITCRASRDITKFLNWYQQKPGKAPKLLIYYTSRLHSGVPSRFSGSGSGTDFTLTISSLQPEDFATYYCQQGNTLPWTFGGGTKVEIKR
2440 | 0.232 | 0.000372 | 1.6e+06 | – | – | – | hu98L3H1 (antibody, human IgG1, kappa, V domains shown) VH: EVQLVESGGGLVQPGGSLRLSCAASGFTFSDYGIHWVRQAPGKGLEWVAYISSGGYTIYYADTVKGRFTISRDNAKNSLYLQMNSLRAEDTAVYYCARGDYDDIFYTMDYWGQGTTVTVSS VL: DIQMTQSPSSLSASVGDRVTITCRASRDITKFLNWYQQKPGGAVKLLIYYTSRLHSGVPSRFSGSGSGTDYTLTISSLQPEDFATYYCQQGNTLPWTFGGGTKVEIKR
2100 | 0.382 | 0.000803 | 2.1e+06 | 0.1 | – | – | hu6L2H13 (antibody, human IgG1, kappa, V domains shown) VH: EVQLVQSGSELKKPGASVKVSCKASGYTFTDYYMNWVKQAPGQGLEWMGIINPYSGVTIYNHKFKGRFALSVDKSSNTAYLQISSLKAEDTAVYYCARQDSLLDYAMDYWGQGTTVTVSS VL: DIQMTQSPSSLSASVGDRVTITCHASQGISGNMGWLQQKPGKAPKGLIYHGANLEDGVPSRFSGSGSGADYTLTISSLQPEDFATYYCVQYAQFPYTFGGGTKVEIKR
2200 | 3.06 | 0.00205 | 670000 | 0.07 | – | – | hu6L2H7 (antibody, human IgG1, kappa, V domains shown) VH: EVQLVESGGGLVQPGGSLKLSCAASGYTFTDYYMNWVRQASGKGLEWVGIINPYSGVTIYNHKFKGRFTLSVDKSKNTAYLQMNSLKTEDTAVYYCARQDSLLDYAMDYWGQGTTVTVSS VL: DIQMTQSPSSLSASVGDRVTITCHASQGISGNMGWLQQKPGKAPKGLIYHGANLEDGVPSRFSGSGSGADYTLTISSLQPEDFATYYCVQYAQFPYTFGGGTKVEIKR
2130 | 0.391 | 0.000805 | 2.06e+06 | 0.05 | – | – | hu6L4H12 (antibody, human IgG1, kappa, V domains shown) VH: EVQLVQSGSELKKPGASVKVSCKASGYTFTDYYMNWVRQAPGQGLEWMGIINPYSGVTIYNHKFKGRFALSVDKSSNTAYLQISSLKAEDTAVYYCARQDSLLDYAMDYWGQGTTVTVSS VL: DIQMTQSPSSLSASVGDRVTITCHASQGISGNMGWLQQKPGKAPKGLIYHGANLEDGVPSRFSGSGSGADYTLTISSLQPEDFADYYCVQYAQFPYTFGGGTKVEIKR
2190 | 0.314 | 0.000672 | 2.14e+06 | 0.07 | – | – | hu6L4H11 (antibody, human IgG1, kappa, V domains shown) VH: EVQLVQSGSELKKPGASVKVSCKASGYTFTDYYMNWVKQAPGQGLEWMGIINPYSGVTIYNHKFKGRFVLSVDKSSNTAYLQISSLKAEDTAVYYCARQDSLLDYAMDYWGQGTTVTVSS VL: DIQMTQSPSSLSASVGDRVTITCHASQGISGNMGWLQQKPGKAPKGLIYHGANLEDGVPSRFSGSGSGADYTLTISSLQPEDFADYYCVQYAQFPYTFGGGTKVEIKR
2120 | 0.322 | 0.000695 | 2.16e+06 | 0.09 | – | – | hu6L4H13 (antibody, human IgG1, kappa, V domains shown, also called hu6L4VH13) VH: EVQLVQSGSELKKPGASVKVSCKASGYTFTDYYMNWVKQAPGQGLEWMGIINPYSGVTIYNHKFKGRFALSVDKSSNTAYLQISSLKAEDTAVYYCARQDSLLDYAMDYWGQGTTVTVSS VL: DIQMTQSPSSLSASVGDRVTITCHASQGISGNMGWLQQKPGKAPKGLIYHGANLEDGVPSRFSGSGSGADYTLTISSLQPEDFADYYCVQYAQFPYTFGGGTKVEIKR
– | 0.0819 | 4.26e-05 | 520000 | – | 1.31 | 4700 | hu110L1H2 (antibody, human IgG1, kappa, V domains shown) VH: EVQLVQSGAEVKKPGASVKVSCKTSGYTFTDYYMNWVRQAPGQSLEWMGIINPYNGGTSYTQKFKGRVTITVDKSASTAYMELSSLRSEDTAVYYCARHFYDSSYLTYSTMDYWGQGTTVTVSS VL: DIVMTQSPDSLAVSLGERATINCKASENVGIFVSWYQQKPGQSPKLLIYGASNRYTGVPDRFSGSGSATDFTLTISSLQAEDVAVYYCGQSHSYPLTFGQGTKLEIKR
– | 0.068 | 4.17e-05 | 614000 | – | 1.15 | 4470 | hu110L1H1 (antibody, human IgG1, kappa, V domains shown) VH: EVQLVQSGAEVKKPGASVKVSCKASGYTFTDYYMNWVRQAPGQRLEWMGIINPYNGGTSYTQKFKGRVTITVDKSASTAYMELSSLRSEDTAVYYCARHFYDSSYLTYSTMDYWGQGTTVTVSS VL: DIVMTQSPDSLAVSLGERATINCKASENVGIFVSWYQQKPGQSPKLLIYGASNRYTGVPDRFSGSGSATDFTLTISSLQAEDVAVYYCGQSHSYPLTFGQGTKLEIKR
